Experimental findings from article PMC3760192 are described below.

Where only a bound is given, the exact number is not on record here.

What all share (experiment): AFM force spectroscopy
For one experiment, the target named is MBP-CBD protein.
Experiment [1] deals with MBP-I^N of the Nostoc species PCC7120 (Nsp) split intein (Nostoc species PCC7120).
Experiment [2] concerns the target MBP-I^N of the Oscillatoria limnetica (Oli) split intein (Oscillatoria limnetica).
The target in experiment [3] is MBP-I^N of the Thermosynechococcus vulcanus (Tvu) split intein (Thermosynechococcus vulcanus).

On to “MBP-I^C-CBD of the Nostoc species PCC7120 (Nsp) split intein”, for which, in the experiment with MBP-CBD protein, the Fad (adhesion force) was under 30 pN.

With “MBP-I^C-CBD of the Oscillatoria limnetica (Oli) split intein”, the Fad (adhesion force) with MBP-CBD protein was under 30 pN.

As for “MBP-I^C-CBD of the Thermosynechococcus vulcanus (Tvu) split intein”, the Fad (adhesion force) with MBP-CBD protein was under 30 pN.

Regarding “cleaved CBD-I^C of the Nostoc species PCC7120 (Nsp) split intein (domain or fragment)”, the Fad (adhesion force, mode of the lognormal distribution) stood at 52 pN in experiment [1], 60 pN in experiment [2] and 52 pN in experiment [3].

On to “cleaved CBD-I^C of the Oscillatoria limnetica (Oli) split intein (domain or fragment)”, for which the Fad (adhesion force, mode of the lognormal distribution) in experiment [1], in experiment [2] and in experiment [3] was 52 pN throughout.

For “cleaved CBD-I^C of the Thermosynechococcus vulcanus (Tvu) split intein (domain or fragment)”, the Fad (adhesion force, mode of the lognormal distribution) in experiment [1] worked out at 49 pN; in experiment [2], 52 pN; in experiment [3], 53 pN.
